Measured values reported in patent US20020182172A1, “Water-soluble polymer conjugates of triazine derivatives” (Shearwater Corporation, priority 2000, published 2002).

Experiment: Stability study in D2O (formaldehyde release monitored by NMR; MALDI-TOF of hydrolyzed product)
Method: Compound III, V, and XIV (6 mg) were separately dissolved in 0.75 ml of D2O and stored at 37° C. The methylene peak disappearance as well as methyl peak shift were monitored by 300 MHz NMR over time. The half-life of the formaldehyde release reaction was monitored using first order kinetics.

Substance | half-life (t1/2) of the formaldehyde release reaction [h] | dimerization (MALDI-TOF spectrum of hydrolyzed compound) (after hydrolysis in D2O at 37° C.)
2-mPEGyloxy5k-4,6-di-(N-methyl-N-hydroxymethylamino)-1,3,5-triazine [Compound III] | 81 | 
2-mPEGyloxy350-4,6-di-(N-methyl-N-hydroxymethylamino)-1,3,5-triazine [V] | 81 | no detectable dimerization
